# Measured values: patent US20120064090A1, “THERAPEUTIC AGENT FOR CANCER HAVING REDUCED SENSITIVITY TO MOLECULAR TARGET DRUG AND PHARMACEUTICAL COMPOSITION FOR ENHANCING SENSITIVITY TO MOLECULAR TARGET DRUG” (KRINGLE PHARMA INC., priority 2009, published 2012)
# Key:
# [1] = tested on: H1975; test: Effects of SU11274 on H1975 with HGF-induced CL-387,785-resistance; format: cell-based, human; details: CL-387,785 0.3 μM, HGF 50 ng/mL, antibody 2 μg/mL, NK4 0.3 μM, 72 hours, FIG. 12
# Description: H1975 was seeded at 2×10^3 cells/well on 96-well plates and cultured for 24 hours. […] The degree of cell growth was measured by the MTT method and the growth rate was calculated in the same manner as in the above (a).
# [2] = tested on: PC-9; test: Effects of SU11274 on PC-9 with HGF-induced gefitinib-resistance; format: cell-based, human; details: HGF 20 ng/mL, gefitinib 0.3 μM, antibody 1 μg/mL, NK4 0.3 μM, SU11274 0.3 μM, 72 hours, FIG. 11
# Description: PC-9 was seeded at 2×10^3 cells/well on 96-well plates and cultured for 24 hours. […] After that, 50 μL of an MTT solution (2 mg/mL, manufactured by Sigma) was added and incubation was performed at 37° C. for 2 hours. The culture media were removed, and dark blue crystals were dissolved by adding 100 μL of DMSO. The absorbance was measured with a microplate reader MTP-120 (Corona Electric Co., Ltd.) at the detection and reference wavelengths of 550 nm and 630 nm, respectively. The growth rate was shown as a relative value based on an untreated control. Each experiment was performed in triplicate and repeated thrice independently.
# [3] = tested on: H1975; test: Effects of anti-human HGF neutralizing antibody or NK4 on H1975 with HGF-induced CL-387,785-resistance; format: cell-based; details: CL-387,785 0.3 μM, HGF 50 ng/mL, antibody 2 μg/mL, NK4 0.3 μM, 72 hours, FIG. 10
# Description: In the same manner as in the above (a), H1975 was seeded at 2×10^3 cells/well on 96-well plates. […] The degree of cell growth was measured by the MTT method and the growth rate was calculated in the same manner as in the above (a).
# [4] = tested on: tumor formed of PC-9 and MRC-5 cells; test: Xenograft tumor (PC-9 + MRC-5) transplanted into SCID mice; format: in vivo; details: PC-9 + MRC-5 s.c., days 4 to 16, gefitinib 25 mg/kg/day oral, antibody 5 mg/kg/day i.p., NK4 9 mg/kg/day i.p., FIG. 6
# Description: SCID mice (female, 5 weeks old) were purchased from CLEA Japan.
# 100 μL of a cell suspension containing PC-9 (5×10^6 cells) and MRC-5 (5×10^6 cells) was subcutaneously inoculated from the back skin of each SCID mouse. Four days later, mice bearing a tumor exceeding 4 mm in diameter were randomly divided into 6 groups (5 mice per group) as shown in Table 1.
# In gefitinib-treated groups (groups 4, 5 and 6 in Table 1), gefitinib (25 mg/kg/day) was orally administered once daily in the morning for 13 days from 4 days to 16 days after cell inoculation. In gefitinib-non-treated groups (groups 1, 2 and 3 in Table 1), a water containing 1% Tween80 was orally administered once daily in a similar manner to the above. In anti-HGF neutralizing antibody-treated groups (groups 2 and 5 in Table 1), the anti-HGF neutralizing antibody (5 mg/kg/day) was intraperitoneally administered once daily immediately after gefitinib administration for 13 days from 4 days to 16 days after cell inoculation. In NK4-treated groups (groups 3 and 6 in Table 1), NK4 (9 mg/kg/day) was intraperitoneally administered in divided portions twice a day in the morning immediately after gefitinib administration and in the evening for 13 days from 4 days to 16 days after cell inoculation.
# The width and length of tumor were measured every other day, and the tumor area (width×length) was calculated. […]
molecule,measurement,setting,value
"NK4 (protein, listed as Homo sapiens, recombinant human NK4 protein; N-terminal hairpin domain and four kringle domains of HGF α chain, antagonist of HGF) chain 1: MWVTKLLPALLLQHVLLHLLLLPIAIPYAEGQRKRRNTIHEFKKSAKTTLIKIDPALKIKTKKVNTADQCANRCTRNKGLPFTCKAFVFDKARKQCLWFPFNSMSSGVKKEFGHEFDLYENKDYIRNCIIGKGRSYKGTVSITKSGIKCQPWSSMIPHEHSFLPSSYRGKDLQENYCRNPRGEEGGPWCFTSNPEVRYEVCDIPQCSEVECMTCNGESYRGLMDHTESGKICQRWDHQTPHRHKFLPERYPDKGFDDNYCRNPDGQPRPWCYTLDPHTRWEYCAIKTCADNTMNDTDVPLETTECIQGQGEGYRGTVNTIWNGIPCQRWDSQYPHEHDMTPENFKCKDLRENYCRNPDGSESPWCFTTDPNIRVGYCSQIPNCDMSHGQDCYRGNGKNYMGNLSQTRSGLTCSMWDKNMEDLHRHIFWEPDASKLNENYCRNPDDDAHGPWCYTGNPLIPWDYCPISRCEGDTTPTIV chain 2: MWVTKLLPALLLQHVLLHLLLLPIAIPYAEGQRKRRNTIHEFKKSAKTTLIKIDPALKIKTKKVNTADQCANRCTRNKGLPFTCKAFVFDKARKQCLWFPFNSMSSGVKKEFGHEFDLYENKDYIRNCIIGKGRSYKGTVSITKSGIKCQPWSSMIPHEHSYRGKDLQENYCRNPRGEEGGPWCFTSNPEVRYEVCDIPQCSEVECMTCNGESYRGLMDHTESGKICQRWDHQTPHRHKFLPERYPDKGFDDNYCRNPDGQPRPWCYTLDPHTRWEYCAIKTCADNTMNDTDVPLETTECIQGQGEGYRGTVNTIWNGIPCQRWDSQYPHEHDMTPENFKCKDLRENYCRNPDGSESPWCFTTDPNIRVGYCSQIPNCDMSHGQDCYRGNGKNYMGNLSQTRSGLTCSMWDKNMEDLHRHIFWEPDASKLNENYCRNPDDDAHGPWCYTGNPLIPWDYCPISRCEGDTTPTIV","inhibition of HGF-induced hyposensitivity of H1975 to CL-387,785",[1],significantly inhibited
same,inhibition of HGF-induced hyposensitivity of PC-9 to gefitinib,[2],significantly inhibited
same,"inhibition of HGF-induced hyposensitivity of H1975 to CL-387,785",[3],inhibited the HGF-induced hyposensitivity
same,tumor volume / tumor growth over time,[4],tumor growth rate was slightly reduced
